Results taken from the supplement of paper PMC11908140.

B1: library; numbered along this chain (parent)
chain: MRKPRAAVGSGHRKQAASQEGRQKHAKNNSQAKPSACDGLARQPEEVVLQASVSSYHLFRDVAEVTAFRGSLLSWYDQEKRDLPWRRRAEDEMDLDRRAYAVWVSEVMLQQTQVATVINYYTGWMQKWPTLQDLASASLEEVNQLWAGLGYYSRGRRLQEGARKVVEELGGHMPRTAETLQQLLPGVGRYTAGAIASIAFGQATGVVDGNVARVLCRVRAIGADPSSTLVSQQLWGLAQQLVDPARPGDFNQAAMELGATVCTPQRPLCSQCPVESLCRARQRVEQEQLLASGSLSGSPDVEECAPNTGQCHLCLPPSEPWDQTLGVVNFPRKASRKPPREESSATCVLEQPGALGAQILLVQRPNSGLLAGLWEFPSVTWEPSEQLQRKALLQELQRWAGPLPATHLRHLGEVVHTFSHIKLTYQVYGLALEGQTPVTTVPPGARWLTQEEFHTAAVSTAMKKVFRVYQGQQPGTCMGSKRSQVSSPCSRKKPRMGQQVLDNFFRSHISTDAHSLNSAAQ

Variants of: B1
Assay: 8OG:A repair function score (normalized; synonymous = 0, nonsense = -1) (normalized log-likelihood score); higher = more repair activity (WT-like)
Details: with 8OG:A DNA repair reporter (GFP) in HEK-293 MUTYH KO cells
In short: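 Lentiviral MUTYH cDNA NNN codon-scan libraries were expressed in MUTYH knockout HEK-293 cells with 10 pg/ml doxycycline, and the cells received an 8OG:A GFP repair reporter together with mCherry. At 72 h, viable mCherry+ cells went into GFP+ (repair) or GFP− bins, three replicates per tile, before tile amplicons were sequenced. A repair function score was then built from per-tile Rosace fitness scores, anchored on the synonymous and nonsense distributions. Synonymous medians sat at 0 and nonsense at -1, and variants under 300 counts per million at the start were left out.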
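Note: cells sorted at 72 h after reporter transfection.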

Variant | 8OG:A repair function score
MRKPRAAVGSGHRKQAASQEGRQKHAKNNSQAKPSACDGLARQPEEVVLQASVSSYHLFRDVAEVTAFRGSLLSWYDQEKRDLPWRRRAEDEMDLDRRAYAVWVSEVMLQQTQVATVINYYTGWMQKWPTLQDLASASLEEVNQLWAGLGYYSRGRRLQEGARKVVEELGGHMPRTAETLQQLLPGVGRYTAGAIASIAFGQATGVVDGNVARVLCRVRAIGADPSSTLVSQQEWGLAQQLVDPARPGDFNQAAMELGATVCTPQRPLCSQCPVESLCRARQRVEQEQLLASGSLSGSPDVEECAPNTGQCHLCLPPSEPWDQTLGVVNFPRKASRKPPREESSATCVLEQPGALGAQILLVQRPNSGLLAGLWEFPSVTWEPSEQLQRKALLQELQRWAGPLPATHLRHLGEVVHTFSHIKLTYQVYGLALEGQTPVTTVPPGARWLTQEEFHTAAVSTAMKKVFRVYQGQQPGTCMGSKRSQVSSPCSRKKPRMGQQVLDNFFRSHISTDAHSLNSAAQ [L234E] | -0.954
MRKPRAAVGSGHRKQAASQEGRQKHAKNNSQAKPSACDGLARQPEEVVLQASVSSYHLFRDVAEVTAFRGSLLSWYDQEKRDLPWRRRAEDEMDLDRRAYAVWVSEVMLQQTQVATVINYYTGWMQKWPTLQDLASASLEEVNQLWAGLGYYSRGRRLQEGARKVVEELGGHMPRTAETLQQLLPGVGRYTAGAIASIAFGQATGVVDGNVARVLCRVRAIGADPSSTLVSQQPWGLAQQLVDPARPGDFNQAAMELGATVCTPQRPLCSQCPVESLCRARQRVEQEQLLASGSLSGSPDVEECAPNTGQCHLCLPPSEPWDQTLGVVNFPRKASRKPPREESSATCVLEQPGALGAQILLVQRPNSGLLAGLWEFPSVTWEPSEQLQRKALLQELQRWAGPLPATHLRHLGEVVHTFSHIKLTYQVYGLALEGQTPVTTVPPGARWLTQEEFHTAAVSTAMKKVFRVYQGQQPGTCMGSKRSQVSSPCSRKKPRMGQQVLDNFFRSHISTDAHSLNSAAQ [L234P] | -1.02
MRKPRAAVGSGHRKQAASQEGRQKHAKNNSQAKPSACDGLARQPEEVVLQASVSSYHLFRDVAEVTAFRGSLLSWYDQEKRDLPWRRRAEDEMDLDRRAYAVWVSEVMLQQTQVATVINYYTGWMQKWPTLQDLASASLEEVNQLWAGLGYYSRGRRLQEGARKVVEELGGHMPRTAETLQQLLPGVGRYTAGAIASIAFGQATGVVDGNVARVLCRVRAIGADPSSTLVSQQHWGLAQQLVDPARPGDFNQAAMELGATVCTPQRPLCSQCPVESLCRARQRVEQEQLLASGSLSGSPDVEECAPNTGQCHLCLPPSEPWDQTLGVVNFPRKASRKPPREESSATCVLEQPGALGAQILLVQRPNSGLLAGLWEFPSVTWEPSEQLQRKALLQELQRWAGPLPATHLRHLGEVVHTFSHIKLTYQVYGLALEGQTPVTTVPPGARWLTQEEFHTAAVSTAMKKVFRVYQGQQPGTCMGSKRSQVSSPCSRKKPRMGQQVLDNFFRSHISTDAHSLNSAAQ [L234H] | -0.751
MRKPRAAVGSGHRKQAASQEGRQKHAKNNSQAKPSACDGLARQPEEVVLQASVSSYHLFRDVAEVTAFRGSLLSWYDQEKRDLPWRRRAEDEMDLDRRAYAVWVSEVMLQQTQVATVINYYTGWMQKWPTLQDLASASLEEVNQLWAGLGYYSRGRRLQEGARKVVEELGGHMPRTAETLQQLLPGVGRYTAGAIASIAFGQATGVVDGNVARVLCRVRAIGADPSSTLVSQQCWGLAQQLVDPARPGDFNQAAMELGATVCTPQRPLCSQCPVESLCRARQRVEQEQLLASGSLSGSPDVEECAPNTGQCHLCLPPSEPWDQTLGVVNFPRKASRKPPREESSATCVLEQPGALGAQILLVQRPNSGLLAGLWEFPSVTWEPSEQLQRKALLQELQRWAGPLPATHLRHLGEVVHTFSHIKLTYQVYGLALEGQTPVTTVPPGARWLTQEEFHTAAVSTAMKKVFRVYQGQQPGTCMGSKRSQVSSPCSRKKPRMGQQVLDNFFRSHISTDAHSLNSAAQ [L234C] | -0.521
MRKPRAAVGSGHRKQAASQEGRQKHAKNNSQAKPSACDGLARQPEEVVLQASVSSYHLFRDVAEVTAFRGSLLSWYDQEKRDLPWRRRAEDEMDLDRRAYAVWVSEVMLQQTQVATVINYYTGWMQKWPTLQDLASASLEEVNQLWAGLGYYSRGRRLQEGARKVVEELGGHMPRTAETLQQLLPGVGRYTAGAIASIAFGQATGVVDGNVARVLCRVRAIGADPSSTLVSQQKWGLAQQLVDPARPGDFNQAAMELGATVCTPQRPLCSQCPVESLCRARQRVEQEQLLASGSLSGSPDVEECAPNTGQCHLCLPPSEPWDQTLGVVNFPRKASRKPPREESSATCVLEQPGALGAQILLVQRPNSGLLAGLWEFPSVTWEPSEQLQRKALLQELQRWAGPLPATHLRHLGEVVHTFSHIKLTYQVYGLALEGQTPVTTVPPGARWLTQEEFHTAAVSTAMKKVFRVYQGQQPGTCMGSKRSQVSSPCSRKKPRMGQQVLDNFFRSHISTDAHSLNSAAQ [L234K] | -0.869
MRKPRAAVGSGHRKQAASQEGRQKHAKNNSQAKPSACDGLARQPEEVVLQASVSSYHLFRDVAEVTAFRGSLLSWYDQEKRDLPWRRRAEDEMDLDRRAYAVWVSEVMLQQTQVATVINYYTGWMQKWPTLQDLASASLEEVNQLWAGLGYYSRGRRLQEGARKVVEELGGHMPRTAETLQQLLPGVGRYTAGAIASIAFGQATGVVDGNVARVLCRVRAIGADPSSTLVSQQIWGLAQQLVDPARPGDFNQAAMELGATVCTPQRPLCSQCPVESLCRARQRVEQEQLLASGSLSGSPDVEECAPNTGQCHLCLPPSEPWDQTLGVVNFPRKASRKPPREESSATCVLEQPGALGAQILLVQRPNSGLLAGLWEFPSVTWEPSEQLQRKALLQELQRWAGPLPATHLRHLGEVVHTFSHIKLTYQVYGLALEGQTPVTTVPPGARWLTQEEFHTAAVSTAMKKVFRVYQGQQPGTCMGSKRSQVSSPCSRKKPRMGQQVLDNFFRSHISTDAHSLNSAAQ [L234I] | -0.183
MRKPRAAVGSGHRKQAASQEGRQKHAKNNSQAKPSACDGLARQPEEVVLQASVSSYHLFRDVAEVTAFRGSLLSWYDQEKRDLPWRRRAEDEMDLDRRAYAVWVSEVMLQQTQVATVINYYTGWMQKWPTLQDLASASLEEVNQLWAGLGYYSRGRRLQEGARKVVEELGGHMPRTAETLQQLLPGVGRYTAGAIASIAFGQATGVVDGNVARVLCRVRAIGADPSSTLVSQQNWGLAQQLVDPARPGDFNQAAMELGATVCTPQRPLCSQCPVESLCRARQRVEQEQLLASGSLSGSPDVEECAPNTGQCHLCLPPSEPWDQTLGVVNFPRKASRKPPREESSATCVLEQPGALGAQILLVQRPNSGLLAGLWEFPSVTWEPSEQLQRKALLQELQRWAGPLPATHLRHLGEVVHTFSHIKLTYQVYGLALEGQTPVTTVPPGARWLTQEEFHTAAVSTAMKKVFRVYQGQQPGTCMGSKRSQVSSPCSRKKPRMGQQVLDNFFRSHISTDAHSLNSAAQ [L234N] | -0.855
MRKPRAAVGSGHRKQAASQEGRQKHAKNNSQAKPSACDGLARQPEEVVLQASVSSYHLFRDVAEVTAFRGSLLSWYDQEKRDLPWRRRAEDEMDLDRRAYAVWVSEVMLQQTQVATVINYYTGWMQKWPTLQDLASASLEEVNQLWAGLGYYSRGRRLQEGARKVVEELGGHMPRTAETLQQLLPGVGRYTAGAIASIAFGQATGVVDGNVARVLCRVRAIGADPSSTLVSQQDWGLAQQLVDPARPGDFNQAAMELGATVCTPQRPLCSQCPVESLCRARQRVEQEQLLASGSLSGSPDVEECAPNTGQCHLCLPPSEPWDQTLGVVNFPRKASRKPPREESSATCVLEQPGALGAQILLVQRPNSGLLAGLWEFPSVTWEPSEQLQRKALLQELQRWAGPLPATHLRHLGEVVHTFSHIKLTYQVYGLALEGQTPVTTVPPGARWLTQEEFHTAAVSTAMKKVFRVYQGQQPGTCMGSKRSQVSSPCSRKKPRMGQQVLDNFFRSHISTDAHSLNSAAQ [L234D] | -1.03
MRKPRAAVGSGHRKQAASQEGRQKHAKNNSQAKPSACDGLARQPEEVVLQASVSSYHLFRDVAEVTAFRGSLLSWYDQEKRDLPWRRRAEDEMDLDRRAYAVWVSEVMLQQTQVATVINYYTGWMQKWPTLQDLASASLEEVNQLWAGLGYYSRGRRLQEGARKVVEELGGHMPRTAETLQQLLPGVGRYTAGAIASIAFGQATGVVDGNVARVLCRVRAIGADPSSTLVSQQGWGLAQQLVDPARPGDFNQAAMELGATVCTPQRPLCSQCPVESLCRARQRVEQEQLLASGSLSGSPDVEECAPNTGQCHLCLPPSEPWDQTLGVVNFPRKASRKPPREESSATCVLEQPGALGAQILLVQRPNSGLLAGLWEFPSVTWEPSEQLQRKALLQELQRWAGPLPATHLRHLGEVVHTFSHIKLTYQVYGLALEGQTPVTTVPPGARWLTQEEFHTAAVSTAMKKVFRVYQGQQPGTCMGSKRSQVSSPCSRKKPRMGQQVLDNFFRSHISTDAHSLNSAAQ [L234G] | -0.994
MRKPRAAVGSGHRKQAASQEGRQKHAKNNSQAKPSACDGLARQPEEVVLQASVSSYHLFRDVAEVTAFRGSLLSWYDQEKRDLPWRRRAEDEMDLDRRAYAVWVSEVMLQQTQVATVINYYTGWMQKWPTLQDLASASLEEVNQLWAGLGYYSRGRRLQEGARKVVEELGGHMPRTAETLQQLLPGVGRYTAGAIASIAFGQATGVVDGNVARVLCRVRAIGADPSSTLVSQQAWGLAQQLVDPARPGDFNQAAMELGATVCTPQRPLCSQCPVESLCRARQRVEQEQLLASGSLSGSPDVEECAPNTGQCHLCLPPSEPWDQTLGVVNFPRKASRKPPREESSATCVLEQPGALGAQILLVQRPNSGLLAGLWEFPSVTWEPSEQLQRKALLQELQRWAGPLPATHLRHLGEVVHTFSHIKLTYQVYGLALEGQTPVTTVPPGARWLTQEEFHTAAVSTAMKKVFRVYQGQQPGTCMGSKRSQVSSPCSRKKPRMGQQVLDNFFRSHISTDAHSLNSAAQ [L234A] | -0.833
MRKPRAAVGSGHRKQAASQEGRQKHAKNNSQAKPSACDGLARQPEEVVLQASVSSYHLFRDVAEVTAFRGSLLSWYDQEKRDLPWRRRAEDEMDLDRRAYAVWVSEVMLQQTQVATVINYYTGWMQKWPTLQDLASASLEEVNQLWAGLGYYSRGRRLQEGARKVVEELGGHMPRTAETLQQLLPGVGRYTAGAIASIAFGQATGVVDGNVARVLCRVRAIGADPSSTLVSQYLWGLAQQLVDPARPGDFNQAAMELGATVCTPQRPLCSQCPVESLCRARQRVEQEQLLASGSLSGSPDVEECAPNTGQCHLCLPPSEPWDQTLGVVNFPRKASRKPPREESSATCVLEQPGALGAQILLVQRPNSGLLAGLWEFPSVTWEPSEQLQRKALLQELQRWAGPLPATHLRHLGEVVHTFSHIKLTYQVYGLALEGQTPVTTVPPGARWLTQEEFHTAAVSTAMKKVFRVYQGQQPGTCMGSKRSQVSSPCSRKKPRMGQQVLDNFFRSHISTDAHSLNSAAQ [Q233Y] | 0.0243
MRKPRAAVGSGHRKQAASQEGRQKHAKNNSQAKPSACDGLARQPEEVVLQASVSSYHLFRDVAEVTAFRGSLLSWYDQEKRDLPWRRRAEDEMDLDRRAYAVWVSEVMLQQTQVATVINYYTGWMQKWPTLQDLASASLEEVNQLWAGLGYYSRGRRLQEGARKVVEELGGHMPRTAETLQQLLPGVGRYTAGAIASIAFGQATGVVDGNVARVLCRVRAIGADPSSTLVSQWLWGLAQQLVDPARPGDFNQAAMELGATVCTPQRPLCSQCPVESLCRARQRVEQEQLLASGSLSGSPDVEECAPNTGQCHLCLPPSEPWDQTLGVVNFPRKASRKPPREESSATCVLEQPGALGAQILLVQRPNSGLLAGLWEFPSVTWEPSEQLQRKALLQELQRWAGPLPATHLRHLGEVVHTFSHIKLTYQVYGLALEGQTPVTTVPPGARWLTQEEFHTAAVSTAMKKVFRVYQGQQPGTCMGSKRSQVSSPCSRKKPRMGQQVLDNFFRSHISTDAHSLNSAAQ [Q233W] | -0.0138
